Patent US20200057058A1 (MIT, published 2020)

How the values were obtained:
[1] = biological target: monomeric streptavidin variant mSA2; test: fluorescent binding assay, labeled mSA2; signal three standard deviations above blank
Procedure: (§1) The binding function of rcSso7d.SA oligomer-PNIPAM thin films was measured using fluorescently-labeled monomeric streptavidin (mSA2) and fluorescently-labeled streptavidin (SA). Details for the expression, purification, and fluorescent labeling of mSA2 are provided below. Samples were prepared by serial dilution of SA or mSA2 in PBS (pH 7.4), human urine (diluted to 50% v/v in PBS, pH 7.4), or blood serum (obtained as the supernatant by centrifuging whole blood at 1500×g for 10 minutes, then diluted to 50% v/v in PBS, pH 7.4). 0.5 μL drops of solutions containing serially diluted fluorescent mSA2 and fluorescent SA samples in PBS (pH 7.4) were gently applied to the surface of each bioconjugate thin film. Films were incubated in a sealed chamber saturated with water vapor at room temperature to prevent to prevent drying of the applied fluorescent samples. After 1 hour, films were thoroughly rinsed with water for 10 seconds (a time determined to be sufficient to remove unbound molecules from the film, see FIG. 33, dried under filtered airflow, and immediately analyzed for fluorescent signal. Fluorescence microscopy images were acquired at 4× magnification using a Cy5 filter set and exposure time of 5000 ms on an Olympus IX-81 inverted fluorescence microscope with an AxioCam HRC CCD camera. Fluorescent intensity was calculated using ImageJ software⁶⁷ by determining the average fluorescent signal in a rectangular area of the fluorescent image free of defects and occupying no less than half of the full sample application area.
Oligomerization of rcSso7d.SA also brings about a decrease in biosensor limit of detection (LOD). […] While all thin films display improvements up to threefold in LOD over the monolayer, the trend in LOD with respect to degree of oligomerization is non-monotonic. The primary factor that is expected to affect LOD in the studied biosensors is number of binding sites, as more binding sites enable a greater number of analyte molecules to be captured and shifts analyte-receptor equilibrium in favor of binding events.

streptavidin [2] = biological target: T1, streptavidin (UniProt P22629 37-163, limits assumed); test: fluorescent binding assay: Alexa Fluor 647-labeled streptavidin applied to the thin film; the sheet names the film 2xSP25k, the legend 2xSP17k
T1 construct: It was used without a stated label in the sandwich assays; also called SA
Procedure: as §1, with “Films were incubated in a sealed chamber saturated with water vapor at room temperature to prevent to prevent drying of the applied fluorescent samples.” left out

[3] = biological target: monomeric streptavidin variant mSA2; test: calculated from [P]T of the mSA2 binding curve fit and film thickness; parameters: Calculated Density (density of binding sites within a cross-sectional area of the film): unit not given here
Procedure: To determine the density of binding proteins within a single plane of each thin film, the concentration of accessible binding sites throughout the entire film—taken directly from the binding assay curve fits (Table 4)—was multiplied by the corresponding film thickness. When accounting for differences in film thickness, the density of oligomerized rcSso7d.SA proteins capable of binding mSA2 is found to increase […] with degree of oligomerization (Table 5). This calculated density decreases, though, between the 1×SP25k and 2×SP25k thin films, indicating a lower density of accessible binding sites in the protein domains of the oligomerized rcSso7d.SA conjugate film. The total number of predicted binding sites within each thin film assuming complete accessibility should be proportional to the […] of rcSso7d. SA in the conjugate with PNIPAM. Reasonable estimates for relative values of the predicted number of sites can thus be obtained by normalizing the weight fraction of rcSso7d. SA in each conjugate by the corresponding weight fraction in 1×SP25k. Comparing these predicted relative number of binding sites to the calculated values (FIG. 6C), all oligomeric rcSso7d.SA conjugates are found to contain fewer proteins capable of binding mSA2 than predicted. It is likely that this effect results from a combination of steric blocking of binding sites by bound mSA2 molecules as well as a lack of the free volume required to incorporate mSA2 molecules into the protein nanodomains at high degrees of binding. Despite the lower than expected binding capacity of the conjugate thin films, these biosensors contain approximately […] the quantity of accessible binding sites compared to rcSso7d.SA monolayers on a volumetric basis (Table 4). Recognizing that each plane (and a monolayer) of rcSso7d.SA proteins is roughly 1-2 nm thick,⁸⁰ the studied thin films can be determined to contain approximately 100 more planes of protein than a monolayer.

[4] = biological target: monomeric streptavidin variant mSA2; test: fluorescent binding assay, labeled mSA2 in PBS on thin film; quadratic curve fit
Procedure: as §1
Binding assays were performed by adding serially diluted solutions of fluorescently-labeled mSA2 to thin films of each studied conjugate (FIG. 6A). To maintain consistent transport properties between samples, each oligomer was conjugated to the same previously-synthesized 25 kDa PNIPAM sample. Analyte bound to thin films was quantified using fluorescence microscopy, and binding curves were fit to the collected mean fluorescent intensity (MFI) data using the following equation: […]

streptavidin [5] = biological target: T1, streptavidin; test: fluorescent binding assay, labeled SA in 50% urine on thin film, 4 h exposure
streptavidin [6] = biological target: T1, streptavidin; test: sandwich assay, SA in 50% blood serum, detection with biotin-HRP and TMB
Procedure: (§2) Each well was submerged in 1 mL of 1% BSA in Milli-Q water, and the 12-well plate was incubated at 37° C. for 30 minutes. The wells were rinsed twice by adding 2 mL of Milli-Q water and gently shaking the well plate at 70 rpm for 5 minutes. 1 mL of streptavidin diluted in PBS, urine, or blood serum (prepared as described in the Fluorescent Assays section) containing 0.1% BSA was then added to each well, and the well plate was shaken at 70 rpm for 4 hours at room temperature. Wells were rinsed twice with 2 mL of Milli-Q water then twice with 2 mL of 0.1% BSA in Milli-Q water by shaking at 70 rpm for 5 minutes. After rinsing, wells were submerged in 1 mL of 200 ng/mL biotin-HRP in Milli-Q water containing 0.1% BSA, and the well plate was shaken at 70 rpm for 1 hour at room temperature. Wells were then rinsed with water and 0.1% BSA as described previously. 1 mL of solution from a Pierce TMB substrate kit (Thermo Fisher Scientific) was added to each well, and the well plate was shaken vigorously at 125 rpm for 15 minutes at room temperature. 1 mL of 2M H2SO4 was added to each well, and the absorbance at 450 nm was read using a Tecan Infinite M200 PRO plate reader.
(§3) The general procedure for this proof-of-concept experiment is diagrammed in FIG. 28. Films were first exposed to SA solutions and rinsed to remove unbound analyte. Taking advantage of the strong interaction between SA and biotin, thin films were then submerged in a solution of biotinylated horseradish peroxidase (biotin-HRP). Bound SA was detected colorimetrically through the HRP-mediated oxidation of 3,3′,5,5′-tetramethylbenzidine (TMB). Attempts to perform this assay using mSA2 as the analyte were unsuccessful, even when run on an rcSso7d.SA monolayer.

[7] = biological target: monomeric streptavidin variant mSA2; test: fluorescent binding assay, labeled mSA2 in 50% urine on thin film, 4 h exposure
Procedure: as §1, with “After 1 hour, films were thoroughly rinsed with water for 10 seconds (a time determined to be sufficient to remove unbound molecules from the film, see FIG. 33, dried under filtered airflow, and immediately analyzed for fluorescent signal.” left out
(§4) To evaluate how the apparent size-based diffusion properties translated to biosensing capabilities, binding curves were measured using SA and mSA2 solutions in buffer. Binding curves were fit with a quadratic model that is a function of three parameters: the average MFI per binding event a, the total concentration of binding sites [P]T, and the apparent dissociation constant K_{d,app} describing the binding equilibrium between analyte and binding sites within the thin film.

[8] = biological target: monomeric streptavidin variant mSA2; test: apparent Kd (Kd,app); fluorescent binding curve, labeled mSA2 in 50% urine, 4 h; quadratic fit
[9] = biological target: monomeric streptavidin variant mSA2; test: fluorescent binding curve, labeled mSA2 in 50% urine, 4 h; quadratic fit
[10] = biological target: monomeric streptavidin variant mSA2; test: fluorescent binding curves, labeled mSA2 in 50% urine or 50% blood serum, 4 h
[11] = biological target: monomeric streptavidin variant mSA2; test: fluorescent binding assay, labeled mSA2 in 50% blood serum on thin film, 4 h exposure
Procedure: as §1, with “After 1 hour, films were thoroughly rinsed with water for 10 seconds (a time determined to be sufficient to remove unbound molecules from the film, see FIG. 33, dried under filtered airflow, and immediately analyzed for fluorescent signal.” left out
as §4

streptavidin [12] = biological target: T1, streptavidin; test: apparent Kd (Kd,app); fluorescent binding curve, labeled SA in 50% urine, 4 h; quadratic fit
[13] = biological target: monomeric streptavidin variant mSA2; test: apparent Kd (Kd,app); fluorescent binding curve, labeled mSA2 in 50% blood serum, 4 h; quadratic fit
streptavidin [14] = biological target: T1, streptavidin; test: fluorescent binding assay, labeled SA in 50% blood serum on thin film, 4 h exposure
streptavidin [15] = biological target: T1, streptavidin; test: sandwich assay: SA in 50% urine, biotin-HRP/TMB detection
Procedure: as §2, §3

streptavidin [16] = biological target: T1, streptavidin; test: fluorescent binding curve, labeled SA in 50% urine, 4 h; quadratic fit
[17] = biological target: monomeric streptavidin variant mSA2; test: fluorescent binding curve, labeled mSA2 in 50% blood serum, 4 h; quadratic fit
streptavidin [18] = biological target: T1, streptavidin; test: apparent Kd (Kd,app); fluorescent binding curve, labeled SA in 50% blood serum, 4 h; quadratic fit
streptavidin [19] = biological target: T1, streptavidin; test: fluorescent binding curve, labeled SA in 50% blood serum, 4 h; quadratic fit
streptavidin [20] = biological target: T1, streptavidin; test: sandwich assay: SA in 50% blood serum, biotin-HRP/TMB detection
Procedure: as §2, §3

streptavidin [21] = biological target: T1, streptavidin; test: fluorescent binding assay: Alexa Fluor 647-labeled streptavidin applied to the thin film; the sheet names the film 4xSP25k, the legend 4xSP30k
Procedure: as §1, with “Films were incubated in a sealed chamber saturated with water vapor at room temperature to prevent to prevent drying of the applied fluorescent samples.” left out

T1 sequence (P22629 37-163 limits assumed): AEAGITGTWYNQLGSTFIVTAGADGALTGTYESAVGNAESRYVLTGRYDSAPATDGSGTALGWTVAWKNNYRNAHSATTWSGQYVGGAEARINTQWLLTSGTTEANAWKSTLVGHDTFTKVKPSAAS

B1: 2xSP25k thin film (2x rcSso7d.SA-PNIPAM conjugate, 25 kDa PNIPAM) (designed binder)
chain: MGSSHHHHHHSSGLVPRGSHMCATVKFTYQGEEKQVDISKIKIVARDGQYIDFKYDEGGGAYGYGWVSEKDAPKELLQMLEKQGGGGSGGGGSMATVKFTYQGEEKQVDISKIKIVARDGQYIDFKYDEGGGAYGYGWVSEKDAPKELLQMLEKQGG
modifications: maleimide end-functionalized PNIPAM (25 kDa) on the N-terminal Cys; film lightly crosslinked with glutaraldehyde
notes: Two rcSso7d.SA repeats joined by a (G4S)2 linker in one chain
[1]
  limit of detection (LOD): 200 nM
Streptavidin [2]
  binding result: binds
[3]
  Calculated Density (density of binding sites within a cross-sectional area of the film): 43
  Calculated Ratio (film thickness x [P]T relative to the 1xSP25k thin film): 0.9
[4]
  [P]T (total concentration of accessible binding sites): 3.3 µM

B2: 3xSP30.3k thin film (3x rcSso7d.SA-PNIPAM conjugate, PNIPAM Mn 30.3 kDa) (designed binder)
chain: MGSSHHHHHHSSGLVPRGSHMCATVKFTYQGEEKQVDISKIKIVARDGQYIDFKYDEGGGAYGYGWVSEKDAPKELLQMLEKQGGGGSGGGGSMATVKFTYQGEEKQVDISKIKIVARDGQYIDFKYDEGGGAYGYGWVSEKDAPKELLQMLEKQGGGGSGGGGSMATVKFTYQGEEKQVDISKIKIVARDGQYIDFKYDEGGGAYGYGWVSEKDAPKELLQMLEKQGG
modifications: maleimide end-functionalized PNIPAM (Mn 30.3 kDa) on the N-terminal Cys; film lightly crosslinked with glutaraldehyde
Streptavidin [5]
  Limit of Detection: 1100 nM
Streptavidin [6]
  LOD relative to rcSso7d.SA monolayer: 2 fold
[7]
  Limit of Detection: 12 nM
[8]
  Kd: 29 µM
[9]
  [P]T (total concentration of binding sites): 16 nM
[10]
  LOD relative to rcSso7d.SA monolayer: 2 orders of magnitude lower
[11]
  Limit of Detection: 25 nM
Streptavidin [12]
  Kd: 30 µM
[13]
  Kd: 20 µM
Streptavidin [14]
  Limit of Detection: 1800 nM
Streptavidin [15]
  LOD: 28 nM
Streptavidin [16]
  [P]T (total concentration of binding sites): 0.27 nM
[17]
  [P]T (total concentration of binding sites): 5.7 nM
Streptavidin [18]
  Kd: 40 µM
Streptavidin [19]
  [P]T (total concentration of binding sites): 0.23 nM
Streptavidin [20]
  LOD: 87 nM

B3: 4xSP25k thin film (4x rcSso7d.SA-PNIPAM conjugate, 25 kDa PNIPAM) (designed binder)
chain: MGSSHHHHHHSSGLVPRGSHMCATVKFTYQGEEKQVDISKIKIVARDGQYIDFKYDEGGGAYGYGWVSEKDAPKELLQMLEKQGGGGSGGGGSMATVKFTYQGEEKQVDISKIKIVARDGQYIDFKYDEGGGAYGYGWVSEKDAPKELLQMLEKQGGGGSGGGGSMATVKFTYQGEEKQVDISKIKIVARDGQYIDFKYDEGGGAYGYGWVSEKDAPKELLQMLEKQGGGGSGGGGSMATVKFTYQGEEKQVDISKIKIVARDGQYIDFKYDESGGAYGYGWVSEKDAPKELLQMLEKQ
modifications: maleimide end-functionalized PNIPAM (25 kDa) on the N-terminal Cys; film lightly crosslinked with glutaraldehyde
notes: Four rcSso7d.SA repeats joined by (G4S)2 linkers in one chain
[1]
  limit of detection (LOD): 140 nM
[3]
  Calculated Density (density of binding sites within a cross-sectional area of the film): 62
  Calculated Ratio (film thickness x [P]T relative to the 1xSP25k thin film): 1.31
[4]
  [P]T (total concentration of accessible binding sites): 3.7 µM
Streptavidin [21]
  binding result: binds

B4: 1xSP25k thin film (1x rcSso7d.SA-PNIPAM conjugate, 25 kDa PNIPAM) (designed binder)
chain: MGSIHHHHHHSSGLVPRGSHMCATVKFTYQGEEKQVDISKIKIVARDGQYIDFKYDEGGGAYGYGWVSEKDAPKELLQMLEKQ
modifications: maleimide end-functionalized PNIPAM (25 kDa) on the N-terminal Cys; film lightly crosslinked with glutaraldehyde
[1]
  limit of detection (LOD): 290 nM
[3]
  Calculated Density (density of binding sites within a cross-sectional area of the film): 48
  Calculated Ratio (film thickness x [P]T relative to the 1xSP25k thin film): 1
[4]
  [P]T (total concentration of accessible binding sites): 3.1 µM
